Laboratory results published in article PMC4851370, “The N-Terminus of the Floral Arabidopsis TGA Transcription Factor PERIANTHIA Mediates Redox-Sensitive DNA-Binding”.
Substitutions are numbered along the chain they refer to.

T1: TGA1 (Arabidopsis thaliana, UniProt Q39237 1-368)
T1 sequence: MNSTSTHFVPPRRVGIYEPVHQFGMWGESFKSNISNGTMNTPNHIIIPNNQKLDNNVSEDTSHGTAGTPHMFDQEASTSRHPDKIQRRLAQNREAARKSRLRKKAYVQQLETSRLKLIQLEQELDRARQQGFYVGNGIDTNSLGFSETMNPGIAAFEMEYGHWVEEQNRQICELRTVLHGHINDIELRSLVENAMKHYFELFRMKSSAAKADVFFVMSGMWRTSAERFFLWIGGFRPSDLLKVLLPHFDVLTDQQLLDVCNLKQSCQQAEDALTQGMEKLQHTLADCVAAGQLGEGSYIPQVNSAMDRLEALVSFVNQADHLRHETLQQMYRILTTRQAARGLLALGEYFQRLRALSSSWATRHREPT

T2: TGA2 (Arabidopsis thaliana, UniProt P43273 1-330)
T2 sequence: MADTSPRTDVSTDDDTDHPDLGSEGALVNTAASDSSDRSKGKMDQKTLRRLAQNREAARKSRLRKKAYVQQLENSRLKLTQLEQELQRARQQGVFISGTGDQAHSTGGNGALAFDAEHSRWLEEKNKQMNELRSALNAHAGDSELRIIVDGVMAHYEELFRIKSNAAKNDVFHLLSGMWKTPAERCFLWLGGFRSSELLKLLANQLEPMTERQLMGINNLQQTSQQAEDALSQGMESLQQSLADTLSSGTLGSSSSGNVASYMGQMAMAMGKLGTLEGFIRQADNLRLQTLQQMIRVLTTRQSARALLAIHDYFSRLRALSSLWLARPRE

T3: PANC68SC87S (Arabidopsis thaliana, UniProt Q9SX27 1-452, C68S;C87S)
T3 sequence: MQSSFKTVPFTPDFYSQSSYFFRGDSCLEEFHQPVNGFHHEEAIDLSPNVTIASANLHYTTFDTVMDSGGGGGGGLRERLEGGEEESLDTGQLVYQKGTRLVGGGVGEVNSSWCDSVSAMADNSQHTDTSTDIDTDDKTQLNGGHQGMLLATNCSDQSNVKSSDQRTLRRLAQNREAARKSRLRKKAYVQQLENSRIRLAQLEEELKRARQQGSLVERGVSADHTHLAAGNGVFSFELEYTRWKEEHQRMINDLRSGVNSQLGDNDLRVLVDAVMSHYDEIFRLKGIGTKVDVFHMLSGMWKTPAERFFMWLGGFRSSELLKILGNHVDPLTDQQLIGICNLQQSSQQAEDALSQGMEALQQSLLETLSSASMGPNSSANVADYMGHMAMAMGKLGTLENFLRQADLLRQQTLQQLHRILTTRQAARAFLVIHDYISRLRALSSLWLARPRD

T4: TGA10 (Arabidopsis thaliana, UniProt E3VNM4 1-460)
T4 sequence: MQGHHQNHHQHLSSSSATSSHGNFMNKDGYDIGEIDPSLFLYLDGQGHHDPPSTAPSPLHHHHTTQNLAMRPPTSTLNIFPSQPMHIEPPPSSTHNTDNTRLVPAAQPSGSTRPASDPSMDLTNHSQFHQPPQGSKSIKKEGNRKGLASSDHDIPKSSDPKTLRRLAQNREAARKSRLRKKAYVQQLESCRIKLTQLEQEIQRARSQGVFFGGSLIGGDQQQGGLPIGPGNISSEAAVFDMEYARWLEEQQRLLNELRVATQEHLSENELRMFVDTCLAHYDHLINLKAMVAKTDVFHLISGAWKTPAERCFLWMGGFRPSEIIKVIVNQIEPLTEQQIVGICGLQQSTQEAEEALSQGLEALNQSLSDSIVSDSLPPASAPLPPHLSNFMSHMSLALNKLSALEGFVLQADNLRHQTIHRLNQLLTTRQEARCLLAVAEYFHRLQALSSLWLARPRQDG

T5: TGA3 (Arabidopsis thaliana, UniProt Q39234 1-384)
T5 sequence: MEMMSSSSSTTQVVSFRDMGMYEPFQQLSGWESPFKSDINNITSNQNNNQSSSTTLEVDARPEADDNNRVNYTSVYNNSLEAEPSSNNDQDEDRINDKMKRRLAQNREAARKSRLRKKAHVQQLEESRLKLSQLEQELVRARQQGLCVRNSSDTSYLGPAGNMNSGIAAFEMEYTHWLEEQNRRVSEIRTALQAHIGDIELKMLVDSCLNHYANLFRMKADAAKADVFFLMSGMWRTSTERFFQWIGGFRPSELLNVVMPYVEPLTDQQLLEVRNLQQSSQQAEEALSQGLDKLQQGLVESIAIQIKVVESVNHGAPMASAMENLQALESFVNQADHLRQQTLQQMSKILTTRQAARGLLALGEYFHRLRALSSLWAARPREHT

T6: PANΔN (Arabidopsis thaliana, UniProt Q9SX27 167-452, del1-166)
T6 sequence: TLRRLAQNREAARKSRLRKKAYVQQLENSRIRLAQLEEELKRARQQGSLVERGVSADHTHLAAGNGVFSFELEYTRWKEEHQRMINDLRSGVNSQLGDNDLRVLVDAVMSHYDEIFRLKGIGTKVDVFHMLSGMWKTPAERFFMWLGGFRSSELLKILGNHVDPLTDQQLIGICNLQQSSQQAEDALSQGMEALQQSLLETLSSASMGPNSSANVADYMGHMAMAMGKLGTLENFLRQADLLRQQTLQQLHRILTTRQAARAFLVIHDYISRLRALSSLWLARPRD

T7: … (PAN) (Arabidopsis thaliana, UniProt Q9SX27 1-452)
T7 sequence: T3 sequence with S68C, S87C

T8: PANC27SC68SC87SC114SC154S (Arabidopsis thaliana, UniProt Q9SX27 1-452, C27S;C68S;C87S;C114S;C154S)
T8 sequence: T3 sequence with C27S, C114S, C154S

T9: PANC27SC68SC87SC114SC154SC340S (PAN6xCysmut) (Arabidopsis thaliana, UniProt Q9SX27 1-452, C27S;C68S;C87S;C114S;C154S;C340S)
T9 sequence: T3 sequence with C27S, C114S, C154S, C340S

B1: AAGAAT (dsDNA)
DNA 1: AAGAATCTTTGATCACGTCATCACTCAGATATT
DNA 2: AATATCTGAGTGATGACGTGATCAAAGATTCTT
B2: ΔbZIP (dsDNA)
DNA 1: B1 DNA 1 with C16A, G17A
DNA 2: B1 DNA 2 with C17T, G18T

Assays:
Settings in all cases: protein: ivt; tags: none; chain copies: 2; label: 5' 32P; blunt
TGA1 = molecular target: T1, TGA1; assay: EMSA; 0.9 mM DTT; EMSA as in cited ref 20 (buffer, salt, pH, temperature not given); with or without 0.9 or 20 mM DTT or 2 mM diamide, 30 min in the dark before probe addition
TGA2 = molecular target: T2, TGA2; assay: as above
PANC68SC87S = molecular target: T3, PANC68SC87S; assay: as above
TGA10 = molecular target: T4, TGA10; assay: as above
TGA3 = molecular target: T5, TGA3; assay: as above
PANΔN = molecular target: T6, PANΔN; assay: EMSA; 2 mM diamide; no reduction; EMSA as in cited ref 20 (buffer, salt, pH, temperature not given); with or without 0.9 or 20 mM DTT or 2 mM diamide, 30 min in the dark before probe addition
… (PAN) = molecular target: T7, … (PAN); assay: EMSA; EMSA as in cited ref 20 (buffer, salt, pH, temperature not given); with or without 0.9 or 20 mM DTT or 2 mM diamide, 30 min in the dark before probe addition
[1] = molecular target: T8, PANC27SC68SC87SC114SC154S; assay: EMSA; 2 mM diamide; no inhibition; EMSA as in cited ref 20 (buffer, salt, pH, temperature not given); with or without 0.9 or 20 mM DTT or 2 mM diamide, 30 min in the dark before probe addition
[2] = molecular target: T9, PANC27SC68SC87SC114SC154SC340S …; assay: as above

Binder	binding result (TGA1)	binding result (TGA2)	binding result (PANC68SC87S)	binding result (TGA10)	binding result (TGA3)	binding result (PANΔN)	binding result (… (PAN))	binding result [1]	binding result [2]
B1	binds	binds	binds	binds	binds	binds	binds	binds	binds
B2	–	–	–	–	–	–	no binding	–	–
